# From patent publication US20150010525A1, “Catalytic Tagging System to Study Macro-Molecular Interactions Using Engineered Ubiquitin Ligase and Ubiquitin-Like Proteins to Facilitate Substrate Identification” (THE REGENTS OF THE UNIVERSITY OF CALIFORNIA, priority 2012, published 2015)
# B1: Pre-mRNA-processing factor 19: potential cIAP1 substrate (protein, UniProt Q9UMS4 2-504, looked up)
# Pre-mRNA-processing factor 19: SLICSISNEVPEHPCVSPVSNHVYERRLIEKYIAENGTDPINNQPLSEEQLIDIKVAHPIRPKPPSATSIPAILKALQDEWDAVMLHSFTLRQQLQTTRQELSHALYQHDAACRVIARLTKEVTAAREALATLKPQAGLIVPQAVPSSQPSVVGAGEPMDLGELVGMTPEIIQKLQDKATVLTTERKKRGKTVPEELVKPEELSKYRQVASHVGLHSASIPGILALDLCPSDTNKILTGGADKNVVVFDKSSEQILATLKGHTKKVTSVVFHPSQDLVFSASPDATIRIWSVPNASCVQVVRAHESAVTGLSLHATGDYLLSSSDDQYWAFSDIQTGRVLTKVTDETSGCSLTCAQFHPDGLIFGTGTMDSQIKIWDLKERTNVANFPGHSGPITSIAFSENGYYLATAADDSSVKLWDLRKLKNFKTLQLDNNFEVKSLIFDQSGTYLALGGTDVQIYICKQWTEILHFTEHSGLTTGVAFGHHAKFIASTGMDRSLKFYSL
# B2: Putative annexin A2-like protein: potential cIAP1 substrate (protein, UniProt A6NMY6 2-339, looked up)
# Putative annexin A2-like …: STVHEILCKLSLEGDHSTPPSAYGSVKAYTNFDAERDALNIETAIKTKGVDEVTIVNIVTNRDNAQRQDIVFSYQRRTKKELASALKSALSGHLETVILGLLKTPAQYDASELKASMKGLGTDEDSLIEIICSRTNQELQEINRVYKEMYKTDLEKDIISDTSGDFRKLMVALAKGRRAEDGSVIDYELIDQDAQDLYDAGVKRKGTDVPKWISIMTERSVPHLQKVFDRYKSYSPYDMLESIRKEVKGDLENAFLNLVQRIQNKPLYFADQLYDSMKGKGTRDKVLIRIMVSRSEVDMLKIRSEFKRKYGKSLYYYIQQDTKGDYQKALLYLCGGDD
# B3: Rho GDP-dissociation inhibitor 2: potential cIAP1 substrate (protein, UniProt P52566 2-201, looked up)
# Rho GDP-dissociation …: TEKAPEPHVEEDDDDELDSKLNYKPPPQKSLKELQEMDKDDESLIKYKKTLLGDGPVVTDPKAPNVVVTRLTLVCESAPGPITMDLTGDLEALKKETIVLKEGSEYRVKIHFKVNRDIVSGLKYVQHTYRTGVKVDKATFMVGSYGPRPEEYEFLTPVEEAPKGMLARGTYHNKSFFTDDDKQDHLSWEWNLSIKKEWTE
# B4: Heterogeneous nuclear ribonucleoprotein A0: potential cIAP1 substrate (protein, UniProt Q13151 1-305, looked up)
# Heterogeneous nuclear …: MENSQLCKLFIGGLNVQTSESGLRGHFEAFGTLTDCVVVVNPQTKRSRCFGFVTYSNVEEADAAMAASPHAVDGNTVELKRAVSREDSARPGAHAKVKKLFVGGLKGDVAEGDLIEHFSQFGTVEKAEIIADKQSGKKRGFGFVYFQNHDAADKAAVVKFHPIQGHRVEVKKAVPKEDIYSGGGGGGSRSSRGGRGGRGRGGGRDQNGLSKGGGGGYNSYGGYGGGGGGGYNAYGGGGGGSSYGGSDYGNGFGGFGSYSQHQSSYGPMKSGGGGGGGGSSWGGRSNSGPYRGGYGGGGGYGGSSF
# Molecular target: T1, cIAP1 (Homo sapiens, UniProt P61081+Q13490)
# T1 construct: cIAP1(ΔR) (residues 1-555); GST (N, cleaved yes); made in house; host or cells: E. coli BL21 (DE3)
# T1 sequence (Q13490+P61081 fused): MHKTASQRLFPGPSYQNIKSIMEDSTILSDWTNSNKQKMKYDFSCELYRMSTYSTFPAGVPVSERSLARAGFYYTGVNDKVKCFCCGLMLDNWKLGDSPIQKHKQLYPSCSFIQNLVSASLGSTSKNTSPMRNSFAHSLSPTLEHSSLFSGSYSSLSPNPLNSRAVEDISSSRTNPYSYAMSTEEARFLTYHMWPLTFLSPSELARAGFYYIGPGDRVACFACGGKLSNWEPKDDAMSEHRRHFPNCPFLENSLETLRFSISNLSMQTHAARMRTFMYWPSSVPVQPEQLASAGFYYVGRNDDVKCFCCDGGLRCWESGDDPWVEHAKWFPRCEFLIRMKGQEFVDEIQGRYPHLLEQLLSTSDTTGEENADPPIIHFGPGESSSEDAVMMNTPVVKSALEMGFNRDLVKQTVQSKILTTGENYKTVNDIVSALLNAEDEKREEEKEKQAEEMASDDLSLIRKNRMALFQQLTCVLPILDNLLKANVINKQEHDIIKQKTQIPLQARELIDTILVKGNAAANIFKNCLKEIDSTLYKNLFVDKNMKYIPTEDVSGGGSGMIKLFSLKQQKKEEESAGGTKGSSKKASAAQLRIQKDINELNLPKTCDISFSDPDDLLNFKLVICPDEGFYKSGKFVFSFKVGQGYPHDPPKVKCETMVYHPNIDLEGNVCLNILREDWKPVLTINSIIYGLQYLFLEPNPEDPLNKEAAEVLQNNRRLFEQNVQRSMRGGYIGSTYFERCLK
# Assay: SILAC mass spectrometry screen for cIAP1 substrates with NEDDylator^cIAP1 in apoptotic Jurkat cell lysate
# Type: biochemical
# Details: Light lysate with NEDDylator^cIAP1, Heavy lysate with Ubc12
# Experimental: Jurkat cells were grown in media containing either light or heavy isotopes of lysine and arginine and induced to undergo apoptosis with STS. Light cell extracts were incubated with the respective catalytic tagging system for each of the two IAPs and the heavy extracts labeled only with the wild-type NEDD8 E2, Ubc12. […] 100 mg ^13C6^15N2 L-Lys.2HCl and 86 mg ^13C6 L-Arg.HCl (Cambridge Isotope) were added to the same amount of medium to generate the “Heavy” medium. Jurkat cells were cultured separately in “Light” or “Heavy” medium for 7 days to allow for thorough isotope incorporation. For IAP substrate identification, 400 million cells were treated with 2 μM STS for 4 hours, harvested, lysed in M-PER mammalian protein extraction buffer (Thermo/Pierce) in the presence of protease inhibitors (100× ProteoBlock cocktail, Fermentas) and mixed with cell lysate prepared from 400 million untreated cells. […] Purified NEDDylated proteins were trypsinized and analyzed with tandem mass spectrometry (LC-MS/MS).
# For SILAC experiments, Jurkat cells were cultured separately in “Light” (supplemented with regular Lys and Arg) or “Heavy” (supplemented with ^13C6^15N2 Lys and ^13C6 Arg) medium for 7 days to allow for thorough isotope incorporation. Apoptotic “Light” and “Heavy” cell extracts were prepared individually. The lysates were cleared by spinning and then diluted in 50 mM HEPES pH 7.4, 150 mM NaCl to 5 mg/ml and supplemented with 5 mM ATP, 10 mM MgCl2. Endogenous NEDD8 E1 is cell lysate was used to catalyze the reaction. HB-NEDD8 was added to both lysate at mass ratio 1:500; the catalytic tagging system was added to the “Light” lysate at mass ratio 1:1000. Equal molar of Ubc12 was added to the “Heavy” lysate. […] NEDDylated proteins were separated by one-dimensional SDS-PAGE, and trypsinized for LC-MS/MS analysis.
# For liquid chromatography—Tandem mass spectrometry (LC-MS/MS) analysis, the tryptic peptides were first desalted and concentrated with a C18 Ziptip (Millipore). LC-MS/MS was carried out by reverse phase LC interfaced with a LTQ-Orbitrap (ThermoFisher Scientific) hybrid mass spectrometer. A nanoflow HPLC (NanoAcquity UPLC system, Waters Corporation) was equipped with a trap column (180 μm×20 mm, 5 μm SymmetryC18, from Waters) and an analytical column (100 μm×100 mm, 1.7 μm BEH130C18, from Waters). Peptides were eluted over a linear gradient from 2% solvent A (0.1% formic acid in water) to 35% solvent B (0.1% formic acid in acetonitrile) at 350 nL/min over 35 min. MS and MS/MS spectra were acquired in a data-dependent mode with MS spectra acquired in the Orbitrap at 30,000 resolving power and 6 CID MS/MS spectra acquired per MS in the LTQ linear ion trap. Dynamic exclusion was set at 90 seconds to prevent repeated MS/MS on the same precursor ion.
# The identified peptides were searched against a random decoy protein database for evaluating the false positive rates. […] The decoy peptides were removed from the data. Protein IDs were assigned only when at least two unique peptides were identified from the same protein. For SILAC experiment, Light/Heavy ratios for the identified peptides were calculated, using ProteinProspector. The media Light/Heavy ratios of all the peptides identified for each protein were used to represent the Light/Heavy ratio of the protein.
row,Molecule,L/H (Light/Heavy ratio)
1,Eukaryotic initiation factor 4A-I: potential cIAP1 substrate,5.31
2,Hemoglobin subunit alpha: potential cIAP1 substrate,5.22
3,ELAV-like protein 1: potential cIAP1 substrate,8.78
4,"Isocitrate dehydrogenase [NAD] subunit beta, mitochondrial: potential cIAP1 substrate",14
5,Glyceraldehyde-3-phosphate dehydrogenase: potential cIAP1 substrate,5.21
6,TAR DNA-binding protein 43: potential cIAP1 substrate,26.9
7,Non-POU domain-containing octamer-binding protein: potential cIAP1 substrate,7.52
8,Heterogeneous nuclear ribonucleoprotein U: potential cIAP1 substrate,4.15
9,B1,22.2
10,B2,8.75
11,B3,8.76
12,B4,20.7
